According to patent US20080226630A1 (SYMPHOGEN A S, published 2008):

T1: recombinant human fractalkine (CX3CL1; R&D systems) (human, UniProt P78423 25-100)
T1 sequence (looked up): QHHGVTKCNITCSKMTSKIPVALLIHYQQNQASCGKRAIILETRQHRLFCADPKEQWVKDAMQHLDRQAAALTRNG

T2: G protein of RSV strain Long (subtype A) (human respiratory syncytial virus …, UniProt P20895 1-298)
T2 chain: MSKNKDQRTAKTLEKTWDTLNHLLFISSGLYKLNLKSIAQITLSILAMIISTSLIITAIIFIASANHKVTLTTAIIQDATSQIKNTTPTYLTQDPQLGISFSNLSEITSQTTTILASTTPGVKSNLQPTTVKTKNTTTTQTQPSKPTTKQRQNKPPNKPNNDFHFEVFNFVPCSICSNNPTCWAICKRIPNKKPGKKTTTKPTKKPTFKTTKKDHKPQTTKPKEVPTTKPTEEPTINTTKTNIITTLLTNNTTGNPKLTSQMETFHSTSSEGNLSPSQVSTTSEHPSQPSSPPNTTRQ

T3: G protein of RSV strain 18537 (subtype B) (human respiratory syncytial virus …, UniProt P20896 1-292)
T3 sequence: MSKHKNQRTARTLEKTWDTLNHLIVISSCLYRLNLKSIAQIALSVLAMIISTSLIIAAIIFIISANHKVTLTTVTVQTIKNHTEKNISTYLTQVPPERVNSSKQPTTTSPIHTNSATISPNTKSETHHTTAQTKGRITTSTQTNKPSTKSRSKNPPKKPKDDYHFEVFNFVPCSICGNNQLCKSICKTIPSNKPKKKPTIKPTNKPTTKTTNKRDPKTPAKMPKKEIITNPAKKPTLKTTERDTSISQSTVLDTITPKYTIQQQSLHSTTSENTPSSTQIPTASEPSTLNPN

B1: antibody 856 (clone 856) (antibody, human IgG1, kappa, V domains shown)
VH: QVQLVQSGAEVKKPGASVKVSCKASGYTFSNYGFSWVRQAPGRGLEWMGWISAYNGNTYYAQNLQGRVTMTTDTSTTTAYMVLRSLRSDDTAMYYCARDGNTAGVDMWSRDGFDIWGQGTMVTVSS
VL: DIVMTQTPLSLPVTPGEPASISCRSSQSLLDSNDGNTYLDWYLQKPGQSPQLLIYTFSYRASGVPDRFSGSGSGTDFTLKISRVEAEDVGVYYCMQRIEFPYTFGQGTKLEIKR
B2: antibody 855 (clone 855) (antibody, human IgG1, kappa, V domains shown)
VH: QVQLVQSGPEVKKPGASVKVSCKASGYVLTNYAFSWVRQAPGQGLEWLGWISGSNGNTYYAEKFQGRVTMTTDTSTSTAYMELRSLRSDDTAVYFCARDLLRSTYFDYWGQGTLVTVSS
VL: DIQMTQSPSSVSASVGDRVTITCRASQAISNWLAWYQQKPGKAPKLLIYAASSLQSGVPSRFSGSGSGTDFTLTISGLQPEDFATYYCQQADTFPFTFGPGTKVDIKR
B3: antibody 888 (clone 888) (antibody, human IgG1, kappa, V domains shown)
VH: QLQLQESGPGLVKPSETLSLTCTASGGSINSSNFYWGWIRQPPGKGLEWIGSIFYSGTTYYNPSLKSRVTISVDTSKNQFSLKLSPVTAADTAVYHCARHGFRYCNNGVCSINLDAFDIWGQGTMVTVSS
VL: DIVMTQSPLSLPVTPGAPASISCRSSQSLLRTNGYNYLDWYLQKPGQSPQLLIYLGSIRASGVPDRFSGSGSGTDFTLKISRVEAEDVGVYYCMQSLQTSITFGQGTRLEIKR
B4: Palivizumab (Synagis) (antibody, V domains shown)
VH: QVTLRESGPALVKPTQTLTLTCTFSGFSLSTSGMSVGWIRQPPGKALEWLADIWWDDKKDYNPSLKSRLTISKDTSKNQVVLKVTNMDPADTATYYCARSMITNWYFDVWGAGTTVTVSS
VL: DIQMTQSPSTLSASVGDRVTITCKCQLSVGYMHWYQQKPGKAPKLLIYDTSKLASGVPSRFSGSGSGTEFTLTISSLQPDDFATYYCFQGSGYPFTFGGGTKLEIK
B5: antibody 793 (clone 793) (antibody, human IgG1, kappa, V domains shown)
VH: QVQLVESGGGLVKPGGSLRLSCAASGFPFGDYYMSWIRQAPGKGLEWVAYINRGGTTIYYADSVKGRFTISRDNAKNSLFLQMNSLRAGDTALYYCARGLILALPTATVELGAFDIWGQGTMVTVSS
VL: DIQMTQSPSSLSASVGDRVTITCRASQSITGYLNWYQQKPGKAPKLLIYATSTLQSEVPSRFSGSGSGTDFTLTISSLQPEDFATYYCQQSYNTLTFGGGTKVEIKR
B6: antibody 853 (clone 853) (antibody, human IgG1, kappa, V domains shown)
VH: EVQLVQSGAEVKKPGQSLKISCKTSGYIFTNYWIGWVRQRPGKGLEWMGVIFPADSDARYSPSFQGQVTISADKSIGTAYLQWSSLKASDTAIYYCARPKYYFDSSGQFSEMYYFDFWGQGTLVTVSS
VL: EIVLTQSPGTLSLSPGERATLSCRASQSVSSNYLAWYQQKPGQAPRLLIYGASSRAAGMPDRFSGSGSGTDFTLTISRLEPEDFAVYYCQQYGNSPLTFGGGTEVEIKR

Experiments:
[1] = biological target: T1, recombinant human fractalkine (CX3CL1; …); assay: ELISA on recombinant human fractalkine
Description: Selected clones identified as protein G-specific were also tested for cross-reactivity with recombinant human fractalkine (CX3CL1; R&D systems) by ELISA. Anti-human CX3CL1/Fractalkine monoclonal antibody (R&D systems) was used as a positive control.

[2] = biological target: T2, G protein of RSV strain Long (subtype A); assay: cell-based or functional assay
[3] = biological target: F protein of RSV strain 18537 (human respiratory syncytial virus …, UniProt P13843 26-574); assay: cell-based or functional assay
[4] = biological target: F protein of RSV strain Long (human respiratory syncytial virus …, UniProt P12568 26-574); assay: cell-based or functional assay
[5] = biological target: F protein of RSV strain A2 (human respiratory syncytial virus …, UniProt P03420 26-574); assay: cell-based or functional assay
[6] = biological target: T3, G protein of RSV strain 18537 (subtype …); assay: cell-based or functional assay

Chain of F protein of RSV strain A2 (P03420 26-574): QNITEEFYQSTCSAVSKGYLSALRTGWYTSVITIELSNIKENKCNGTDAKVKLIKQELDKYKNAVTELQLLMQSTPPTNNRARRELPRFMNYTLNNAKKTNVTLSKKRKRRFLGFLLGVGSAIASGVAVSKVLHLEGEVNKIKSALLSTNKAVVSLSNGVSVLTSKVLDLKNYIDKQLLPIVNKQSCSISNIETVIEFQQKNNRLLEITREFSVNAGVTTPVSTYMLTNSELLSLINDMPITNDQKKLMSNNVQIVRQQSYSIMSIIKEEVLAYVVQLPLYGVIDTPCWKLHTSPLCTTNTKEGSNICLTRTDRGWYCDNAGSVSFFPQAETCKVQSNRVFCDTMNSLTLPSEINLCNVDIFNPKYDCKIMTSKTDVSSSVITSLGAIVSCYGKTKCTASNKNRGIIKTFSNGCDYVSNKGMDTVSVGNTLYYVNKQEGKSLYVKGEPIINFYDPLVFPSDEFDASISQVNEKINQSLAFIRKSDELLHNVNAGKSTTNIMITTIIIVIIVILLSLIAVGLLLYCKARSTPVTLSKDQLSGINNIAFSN
Chain of F protein of RSV strain Long (P12568 26-574): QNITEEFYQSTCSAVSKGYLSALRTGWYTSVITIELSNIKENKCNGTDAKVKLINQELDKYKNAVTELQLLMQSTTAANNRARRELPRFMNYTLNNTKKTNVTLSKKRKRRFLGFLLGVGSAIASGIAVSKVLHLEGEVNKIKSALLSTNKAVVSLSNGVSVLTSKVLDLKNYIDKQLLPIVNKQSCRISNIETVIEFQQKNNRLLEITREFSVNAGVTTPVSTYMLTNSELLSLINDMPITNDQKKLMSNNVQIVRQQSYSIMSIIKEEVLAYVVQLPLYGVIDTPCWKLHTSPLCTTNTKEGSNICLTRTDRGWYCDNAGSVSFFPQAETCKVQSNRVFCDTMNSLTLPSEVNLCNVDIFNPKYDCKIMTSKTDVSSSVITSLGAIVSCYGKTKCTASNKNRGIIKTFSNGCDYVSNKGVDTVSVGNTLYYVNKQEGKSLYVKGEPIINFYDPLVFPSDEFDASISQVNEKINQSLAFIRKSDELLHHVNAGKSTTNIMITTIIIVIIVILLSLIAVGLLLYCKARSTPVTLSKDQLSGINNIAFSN
Chain of F protein of RSV strain 18537 (P13843 26-574): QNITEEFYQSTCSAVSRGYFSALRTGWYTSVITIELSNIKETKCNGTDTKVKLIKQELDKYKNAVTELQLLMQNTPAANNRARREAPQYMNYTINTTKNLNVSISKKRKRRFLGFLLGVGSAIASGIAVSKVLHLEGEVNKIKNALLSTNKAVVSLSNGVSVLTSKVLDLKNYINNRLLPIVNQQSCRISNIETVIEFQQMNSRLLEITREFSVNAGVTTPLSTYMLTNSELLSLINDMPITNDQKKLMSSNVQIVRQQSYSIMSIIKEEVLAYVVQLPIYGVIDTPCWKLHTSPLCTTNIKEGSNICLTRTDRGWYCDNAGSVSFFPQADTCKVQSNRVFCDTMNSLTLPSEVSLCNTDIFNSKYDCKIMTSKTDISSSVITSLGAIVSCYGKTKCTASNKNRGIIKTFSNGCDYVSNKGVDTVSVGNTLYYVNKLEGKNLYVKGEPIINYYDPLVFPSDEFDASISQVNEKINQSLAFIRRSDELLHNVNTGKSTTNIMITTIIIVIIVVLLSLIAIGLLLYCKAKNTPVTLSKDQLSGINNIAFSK

Binder	binding result [1]	EC50, PRNT with complement, RSV Long [2] [mg/L]	EC50, PRNT with complement, RSV 18537 [3] [mg/L]	EC50, PRNT with complement, RSV Long [4] [mg/L]	EC50, PRNT with complement, RSV A2 [5] [mg/L]	EC50, PRNT with complement, RSV 18537 [6] [mg/L]	EC50, PRNT with complement, RSV Long (new determination) [2] [mg/L]
B1	no binding						
B2	no binding	6.35					
B3	no binding	0.14					
B4			0.2	0.14	0.15		
B5	no binding	2.52				0.09	
B6	no binding	1.49				0.14	0.13
